# Values of other authors as cited in patent US12453725B2, “Treatment of inflammatory disease” (Celleron Therapeutics Limited, priority 2019, dated 2025).
# Experiments:
# [1] = human, in vivo, cited from earlier work
# [2] = human, in vivo; cited from earlier work
# [3] = in vivo; cited from earlier work
Substance,incidence of grade 3/4 colitis ([1]; 5 mg/kg),enterocolitis (grade 3 or 4 symptoms and/or biopsy proven) [1],"grade 3/4 diarrhoea, patients [1]",abnormal liver tests [2],diarrhoea or colitis [2],disorders of hormone-producing glands [2],"immune-related colitis, patients [2]",kidney inflammation [2],lung inflammation [2],rash [2],"colitis, listed frequency of GI side effect [3]"
ipilimumab: approved checkpoint inhibitor monoclonal antibody targeting CTLA-4,13%,21%,10%,–,–,–,–,–,–,–,–
"nivolumab: human monoclonal antibody that blocks the interaction between PD-1 and its ligands, PD-L1 and PD-L2; IgG4 kappa immunoglobulin",–,–,1%-2%,"clinical trials, between 7 patients in 100 had abnormal liver","nivolumab clinical trials, 13 patients in 100 developed","trials, 10 patients in 100 developed disorders of hormone-",13%,"nivolumab clinical trials, 3 patients in 100 developed kidney","clinical trials, 3 patients in 100 developed lung",between 26 patients in 100 developed rash. Signs or,–
pembrolizumab: humanized IgG4 monoclonal antibody that binds the programmed cell death-1 receptor,–,–,1%-2%,–,–,–,–,–,–,–,common
